Data taken from article PMC3219669.

Key:
[1] = target: Gβ1 and YFP-Gγ2 expressed from the Gβ1-2A-YFP-Gγ2 unit; experiment: FRET or BRET; FLIM of the mTurquoise donor (phase and modulation lifetimes) in living HeLa cells, room temperature; all three subunits from the single plasmid Gα-IRES-Gβ-2A-Gγ
[2] = target: Gβ1 and YFP-Gγ2 expressed from the Gβ1-2A-YFP-Gγ2 unit; experiment: FRET or BRET; FLIM of the mTurquoise donor (phase and modulation lifetimes) in living HeLa cells, room temperature; all three subunits from the single plasmid Gβ-2A-Gγ-IRES-Gα

Gαq-mTurquoiseΔ6 (from UniProt P50148 1-359) (natural protein)
FRET efficiency from the modulation lifetime (E τM) [1]: 7%
FRET efficiency from the phase lifetime (E τϕ) [1]: 14%
FRET efficiency from the modulation lifetime (E τM) [2]: 19%
FRET efficiency from the phase lifetime (E τϕ) [2]: 27%
